# Paper PMC8805389, “High-level production of the agmatine in engineered Corynebacterium crenatum with the inhibition-releasing arginine decarboxylase” (Microbial Cell Factories, 2022)
# What was measured:
# purified protein = substrate: N=C(N)NCCC[C@H](N)C(=O)O; assay: purified protein; conditions: 50 mM Tris-HCl pH 8.0, 2.5 mM MgSO4, 0.6 mM PLP, 37 °C
# [1] = substrate: N=C(N)NCCC[C@H](N)C(=O)O; assay: arginine decarboxylase activity, agmatine by HPLC; assay type: biochemical, Escherichia coli; conditions: 50 mM Tris-HCl pH 8.0, 2.5 mM MgSO4, 0.6 mM PLP, 37 °C
# Description: arginine decarboxylase activity, agmatine by HPLC on SpeA
protein,measurement,setting,value
SpeA (Escherichia coli K-12) (protein) MSDDMSMGLPSSAGEHGVLRSMQEVAMSSQEASKMLRTYNIAWWGNNYYDVNELGHISVCPDPDVPEARVDLAQLVKTREAQGQRLPALFCFPQILQHRLRSINAAFKRARESYGYNGDYFLVYPIKVNQHRRVIESLIHSGEPLGLEAGSKAELMAVLAHAGMTRSVIVCNGYKDREYIRLALIGEKMGHKVYLVIEKMSEIAIVLDEAERLNVVPRLGVRARLASQGSGKWQSSGGEKSKFGLAATQVLQLVETLREAGRLDSLQLLHFHLGSQMANIRDIATGVRESARFYVELHKLGVNIQCFDVGGGLGVDYEGTRSQSDCSVNYGLNEYANNIIWAIGDACEENGLPHPTVITESGRAVTAHHTVLVSNIIGVERNEYTVPTAPAEDAPRALQSMWETWQEMHEPGTRRSLREWLHDSQMDLHDIHIGYSSGIFSLQERAWAEQLYLSMCHEVQKQLDPQNRAHRPIIDELQERMADKMYVNFSLFQSMPDAWGIDQLFPVLPLEGLDQVPERRAVLLDITCDSDGAIDHYIDGDGIATTMPMPEYDPENPPMLGFFMVGAYQEILGNMHNLFGDTEAVDVFVFPDGSVEVELSDEGDTVADMLQYVQLDPKTLLTQFRDQVKKTDLDAELQQQFLEEFEAGLYGYTYLEDE,Km,purified protein,602 ± 92 µM
same,kcat,purified protein,1.79 ± 0.135 s⁻¹
same,kcat/Km,purified protein,2970 M⁻¹ s⁻¹
"SpeA (Escherichia coli K-12; I534D) (protein, C-terminal His-tag; expressed in E. coli BL21(DE3) from pXMJ19; HisTrap purified; tetramer (two dimers)) MSDDMSMGLPSSAGEHGVLRSMQEVAMSSQEASKMLRTYNIAWWGNNYYDVNELGHISVCPDPDVPEARVDLAQLVKTREAQGQRLPALFCFPQILQHRLRSINAAFKRARESYGYNGDYFLVYPIKVNQHRRVIESLIHSGEPLGLEAGSKAELMAVLAHAGMTRSVIVCNGYKDREYIRLALIGEKMGHKVYLVIEKMSEIAIVLDEAERLNVVPRLGVRARLASQGSGKWQSSGGEKSKFGLAATQVLQLVETLREAGRLDSLQLLHFHLGSQMANIRDIATGVRESARFYVELHKLGVNIQCFDVGGGLGVDYEGTRSQSDCSVNYGLNEYANNIIWAIGDACEENGLPHPTVITESGRAVTAHHTVLVSNIIGVERNEYTVPTAPAEDAPRALQSMWETWQEMHEPGTRRSLREWLHDSQMDLHDIHIGYSSGIFSLQERAWAEQLYLSMCHEVQKQLDPQNRAHRPIIDELQERMADKMYVNFSLFQSMPDAWGIDQLFPVLPLEGLDQVPERRAVLLDITCDSDGADDHYIDGDGIATTMPMPEYDPENPPMLGFFMVGAYQEILGNMHNLFGDTEAVDVFVFPDGSVEVELSDEGDTVADMLQYVQLDPKTLLTQFRDQVKKTDLDAELQQQFLEEFEAGLYGYTYLEDE",Km,[1],623 ± 75 µM
same,kcat,[1],2.64 ± 0.328 s⁻¹
same,kcat/Km,[1],4240 M⁻¹ s⁻¹
"SpeA (Escherichia coli K-12; I534S) (protein, C-terminal His-tag; expressed in E. coli BL21(DE3) from pXMJ19; HisTrap purified; tetramer (two dimers)) MSDDMSMGLPSSAGEHGVLRSMQEVAMSSQEASKMLRTYNIAWWGNNYYDVNELGHISVCPDPDVPEARVDLAQLVKTREAQGQRLPALFCFPQILQHRLRSINAAFKRARESYGYNGDYFLVYPIKVNQHRRVIESLIHSGEPLGLEAGSKAELMAVLAHAGMTRSVIVCNGYKDREYIRLALIGEKMGHKVYLVIEKMSEIAIVLDEAERLNVVPRLGVRARLASQGSGKWQSSGGEKSKFGLAATQVLQLVETLREAGRLDSLQLLHFHLGSQMANIRDIATGVRESARFYVELHKLGVNIQCFDVGGGLGVDYEGTRSQSDCSVNYGLNEYANNIIWAIGDACEENGLPHPTVITESGRAVTAHHTVLVSNIIGVERNEYTVPTAPAEDAPRALQSMWETWQEMHEPGTRRSLREWLHDSQMDLHDIHIGYSSGIFSLQERAWAEQLYLSMCHEVQKQLDPQNRAHRPIIDELQERMADKMYVNFSLFQSMPDAWGIDQLFPVLPLEGLDQVPERRAVLLDITCDSDGASDHYIDGDGIATTMPMPEYDPENPPMLGFFMVGAYQEILGNMHNLFGDTEAVDVFVFPDGSVEVELSDEGDTVADMLQYVQLDPKTLLTQFRDQVKKTDLDAELQQQFLEEFEAGLYGYTYLEDE",Km,[1],691 ± 69 µM
same,kcat,[1],2.12 ± 0.206 s⁻¹
same,kcat/Km,[1],3070 M⁻¹ s⁻¹
